Source: the supplement of paper PMC9170038

Legend:
Settings in all cases: FMN input: 0 or 200 uM; Eterna round: R93 (includes R88 designs)
MS2 coat protein [1] = test: apparent KD of MS2 coat protein, switch OFF state (with FMN for OFF switches, without FMN for ON switches); designed switch direction (-1 OFF switch, 1 ON switch): 1; higher = weaker reporter binding
In short: (§1)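 Each design's apparent KD comes from the median of binding-curve fits to its normalised clusters. Those clusters carried RNA switches transcribed on-chip from Illumina sequencing clusters. SNAP-549-labelled MS2 coat protein was titrated onto them in twofold steps (0.7 or 1.5 nM to 3 µM; per step 0.8–1.5 h down to 10–20 min). Conditions were 100 mM Tris-HCl pH 7.5, 80 mM KCl, 4 mM MgCl2, without or with constant ligand.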

MS2 coat protein [2] = test: apparent KD of MS2 coat protein, switch ON state; designed switch direction (-1 OFF switch, 1 ON switch): 1; higher = weaker reporter binding
In short: as §1

MS2 coat protein [3] = test: apparent KD of MS2 coat protein, switch ON state; designed switch direction (-1 OFF switch, 1 ON switch): -1; higher = weaker reporter binding
In short: as §1

MS2 coat protein [4] = test: apparent KD of MS2 coat protein, switch OFF state (with FMN for OFF switches, without FMN for ON switches); designed switch direction (-1 OFF switch, 1 ON switch): -1; higher = weaker reporter binding
In short: as §1

Sequence	apparent KD of MS2 coat protein (MS2 coat protein [1]) [nM]	apparent KD of MS2 coat protein (MS2 coat protein [2]) [nM]	apparent KD of MS2 coat protein (MS2 coat protein [3]) [nM]	apparent KD of MS2 coat protein (MS2 coat protein [4]) [nM]
AUAAAAGAAGCGAAGGAUAUCCAAAACCUAACAUGAGGAUCACCCAUGUAAAGAAAGAAAAAAUGGGAGAAGGUCGCAAAGAAUA [73%, More Fisker Same State 2, D3, 9]	22.7	11.9		
UAGAGAACAGGGUAGGAUAUGCAUGGUCGUACAUGAGGAUCACCCAUGUAGUCUAGAAAAUAAAUGCAGAAGGACCAAAAGAAAA [Edsodiin]	32	15.6		
AAGUCACAUGAGGAUCACCCAUGUCGUAAACGAUGAGGAUAUAGGAAGAAAAAAAAAAAACUAGAAGGUAUUACAA [SameState1-02]	28.6	32.5		
AAGAGACAUGAGGAUCACCCAUGUAGGAUUAUGGGAGGAUAUACAAAGACGAGAGUCAGAGUAGAAGGCCUAGGAC [salish99-ss1-132(!)]	53.8	19.3		
AACAAUCUAUCUGAGGAUAUCAUGUCAAAGACAUGAGGAUCACCCAUGUUGCAGGAAACUGCUCAUGAGAAGGCAGAUAGAUUGA [SS2: 1129]	828	41		
ACAAACAAAAAAGAGGAUAUCCUAAACAAAACAUGAGGAUCACCCAUGUAAAAAAAAAUAAAAUGGGAGAAGGCUUACAACAAAC [SS2 M 23]	51.7	68		
AAACCACAUGAGGAUCACCCAUGUAAAAAAAACACAGGAUAUGGAAACACGAAAGUGAAACCAGAAGGGUGAAAAA [77%, Mat - Mod of Eli, 26]	26.2	18.4		
AGAAAACAUGAGGAUCACCCAUGUAGAAAUAUGGGAGGAUAUACAAAGACGAAAGUCAAAGUAGAAGGCCUAAAAG [Mat - Same State 1 - Eli mod - 35]	78.3	23.2		
CAGAGACAUGAGGAUCACCCAUGUAGGAUUAUGGGAGGAUAUACAAAGACGAGAGUCAGAGUAGAAGGCCUAGGAG [salish99-ss1-143]	48.6	24		
AGAAAACAUGAGGAUCACCCAUGUAGAAAUAUGGGAGGAUAUACGAAGACGAAAGUCAAAGUAGAAGGCCUAAGAA [Mat - Same State 1 - Eli mod - D108]	51.7	18.8		
AAAAGACAUGAGGAUCACCCAUGUCAAAACGUAGGAGGAUAUGUCGUGAAAAAAGACUUGACAGAAGGCCUGUGUC [SS1 - 36]	17.1	15.8		
UUAUUACAUGAGGAUCACCCAUGUUUAGUGGUGACAGGAUAUACGAAAAAAAAAAAAAAAGUAGAAGGGUCUUAUU [SS 1.1]	50.5	162		
AAUACCACUAGCAAGGAUAUCUAAAACGAAACAUGAGGAUCACCCAUGUGACGACCACACGUAUCAGAGAAGGUGCAGGGUGAAU [JR_SS002_Sub306]	24	24.2		
GAAAAACAUGAGGAUCACCCAUGUAGAAAUAUGGUAGGAUAUACAAAGACGAAAGUCAAAGUAGAAGGGCCAAAAG [Starry Same State 1.4 (mat747 round 1 mod)]	19	13		
AAAAAACAUGAGGAUCACCCAUGUAGAAAUAUGGGAGGAUAUACAAAGACGAAAGUCAAAGUAGAAGGCCUAAAAA [77%, Mat - Mod of Eli, 2]	57.8	18.2		
GGGAGACAUGAGGAUCACCCAUGUGAGAAGAGGCGAGGAUAUCGAAAGAAAGAAGAGAAACGAGAAGGCGCGAGCU [salish99-SS1-056]	62	28.1		
GGCAGUCCGACACAGGAUAUGGGUAACGAAACAUGAGGAUCACCCAUGUGGAAACAUCGGGUUGCCUAGAAGGGUGGAAAGAUUG [Xeti]	259	26.4		
AUAAAACAUGAGGAUCACCCAUGUAAAAAUAUGGAAGGAUAUACGUAGUAAAAUAAAUACGUAGAAGGUCCAAAAA [SS! MT 21]	19.7	15		
AUAUAUAAAAGGUAGGAUAUUCUAAAAUAAACAUGAGGAUCACCCAUGUAAAGAAAGAAACUCAUGGAGAAGGACCAUAUAUAUA [ss2 5th modifying Eli's mod of Tesla]	156	45.6		
UAGAGACAUGAGGAUCACCCAUGUAGGAUUAUGGGAGGAUAUACAAAGACGAGAGUCAGAGUAGAAGGCCUAGGAU [salish99-ss1-134(!)]	61.4	27.4		
UAAUAAUAAACCAAGGAUAUGGAGUAAAGAACAUGAGGAUCACCCAUGUGUAGCGUGGAAUAGUACCAGAAGGUGGAGUGAAAUG [JR_SS002_Sub1003]	52.3	54.1		

Sequence	apparent KD of MS2 coat protein (MS2 coat protein [1]) [nM]	apparent KD of MS2 coat protein (MS2 coat protein [2]) [nM]	apparent KD of MS2 coat protein (MS2 coat protein [3]) [nM]	apparent KD of MS2 coat protein (MS2 coat protein [4]) [nM]
AUAUAUAUAAGACAGGAUAUCCUAAAGUAAACAUGAGGAUCACCCAUGUAAAGAAAGAAACUCAUGGAGAAGGGUCAAUAUAUAU [Mat - Same State 2 - Tesla mod - D81]	48.6	14.1		
AUAUAUAUAAGGUAGGAUAUCCAAAAAUCCACAUGAGGAUCACCCAUGUAAAGAAAGAAAAAAUGGGAGAAGGACCAUAUAUAUA [77%, More Tesla, 6]	31.9	16.9		
GAAGACAUAGUAUAGGAUAUAUGAAUAAUUACAUGAGGAUCACCCAUGUGCAUUUAUAUGCGAACAUAGAAGGGUGGUAGUUGUC [Mat - Same state - Malcolm Mod - D129]	59.2	633		
AAGAAACAUGAGGAUCACCCAUGUGAGAUAAACACAGGAUAUGCGAAAAUAAAUAAAUAAGCAGAAGGGUGAAGAA [Mat - Same State 1 - Tesla mod - 69]	82.6	30.2		
AUAAAGUCAGGAUAUGUAAAAAUAACGAAAGUUAUAAAUAAACAGAAGGGACAUGAGGAUCACCCAUGUACAAU [Opal 15]			25.4	21.2
UAAAAACAUGAGGAUCACCCAUGUCAGGAUAUGUGCUCAGUGAAAAACUGAGUAACAAGCAGAAGGGACAAUAA [JR_Exc001_Sub202]			23.6	31.4
AACAAGUCAGGAUAUGCGAAAAGAAAAUAAGAUACACAAAAGCAGAAGGGACAUGAGGAUCACCCAUGUAAAUA [JR_Exc004_Sub011]			36	33.1
AACAGUACAGGAUAUACAUGAGGAUCACCCAUGUGAGAAUUAAGCAGCGUAACACACAGUAGAAGGGUAAUGGA [Ruby 20]			46.4	40.7
AGGUGACAUGAGGAUCACCCAUGUCAGGAUAUAUACACCACCGGCGUGAAGCCGGCGGAUAGAAGGGACAAAAU [Anesar]			15.6	18.2
AGUUGGCGAGGAUAUACAUGAGGAUCACCCAUGUGAAAGAAAAAAGUGAAAAAGAAAAGUAGAAGGCGCUGACA [73%, Moding Norbert Elias, 4]			31.3	131
ACAGUUACAGGAUAUACAAGGGUAACUUCAAAUAAACCUCUACAUGAGGAUCACCCAUGUAGAAGGGUAACUGA [Ex2 Design 200 (maybe): Random 16]			22.8	21.7
CUCUAGUGAGGAUAUGGAAGAAAAGAAGAGAAAGAAAAGAACCAGAAGGCACAUGAGGAUCACCCAUGUAAGAA [EteRNA is fun!]			38.9	46.3
AACCAACAUGAGGAUCACCCAUGUCAGGAUAUGCAAACAACAAACAACAAACAACAAAGCAGAAGGGACAAAAA [Amethyst 82]			17.8	19.5
AACUGACAUGAGGAUCACCCAUGUCAGGAUAUGAUUUGACGAAAAAAAAUAAGUCAUAUCAGAAGGGACAUGGA [Design 84: Sub-opt WB]			26	45
GAAGAACAUGAGGAUCACCCAUGUCAGGAUAUGCAGAAGGGAAUAAUAACUUCUGGAAGCAGAAGGGACAAGAA [Ex 1 May 47]			29.6	30.5
AACAGUACAGGAUAUACAUGAGGAUCACCCAUGUAGAGAGAAUAAAACAAAAAUAAAAGUAGAAGGGUACUGGA [Ruby 48]			21.8	19.3
AAUAAAGGAGGAUAUACUAAAGAAAUGAAAAGAAAUAAAGAACAUGAGGAUCACCCAUGUAGAAGGCCUAAUAA [Yaqub-Har]			31.3	22.8
GAAGAACAUGAGGAUCACCCAUGUCAGGAUAUGAAUAACGGAAUAAUACGUUAUGGAAUCAGAAGGGACAAGAA [Ex 1 May 52]			48.9	59.4
AGCUAGUCAGGAUAUACGAACAAGAAAAAAGACGAGAACGGACAUGAGGAUCACCCAUGUAGAAGGGACUAGCA [Diamond 9]			23.8	26.3
AAAAAACAUGAGGAUCACCCAUGUGAGGAUAUCCAGAAGGGAAUAAAAUAACACGAAAGGAGAAGGCACAAAAA [Ex 1 May 36]			34	31.7
AACAGUACAGGAUAUACAUGAGGAUCACCCAUGUAAAAAUAAAAAGGGAACUCAAAAAGUAGAAGGGUACUGGA [Moding Maslow revisited (73) 14]			72.6	32.5
